Assay results as given in patent US9540337B2, “Gamma-glutamyl transpeptidase inhibitors and methods of use” (The Board of Regents of the University of Oklahoma, priority 2012, dated 2017).

Tests used:
[1] = test system: T1, N[C@@H](CCC(=O)Nc1ccc([N+](=O)[O-])cc1)C(=O)O; test: Initial rate studies with D-GpNA and L-GpNA, with or without acceptor GlyGly; assay type: biochemical, human; details: pH 7.4, 37.0 °C
T1 construct: lacking the transmembrane domain; made in house; host or cells: Pichia pastoris
Protocol: (§1) Transpeptidation Reaction: The same assay buffer was used for both the hydrolysis reaction and the transpeptidation reaction. The transpeptidation reaction included 40 mM glycylglycine (glygly, Sigma, St. Louis, Mo.) as the acceptor. The concentration of the substrate for the transpeptidation reaction, L-GpNA (Sigma) was varied from 0.25 mM to 3 mM. The concentration of L-GpNA was 3 mM for experiments in which the concentration of glygly was varied. To initiate the transpeptidation reaction, 4 mU GGT were added.
(§2) 1. […] 2, which describes a ping pong kinetic mechanism. […] 3 and 4. […] 5 (25).
(§3) In eq. […] Data for noncompetitive inhibition were fitted to eq. 6. […] 6 [25].
(§4) Initial Rate Studies with D-GpNA and L-GpNA: In this study, the inhibition of both the GGT hydrolysis and transpeptidation reactions by OU749 and a new series of thiadiazol sulfonamide analogs was studied. The hydrolysis and transpeptidation reactions were analyzed separately by using different stereo-isomers of the γ-glutamyl-p-nitroanilide (GpNA) substrate. The kinetics of both reactions were first characterized in the absence of inhibitors. Cleavage of the γ-glutamyl bond of either D-GpNA or L-GpNA releases p-nitroanaline, which has an OD405 of 7,680 M^−1 cm^−1, allowing for the reactions to be monitored continuously with high sensitivity. The D-glutamyl isomer of GpNA was used as the substrate for the hydrolysis reaction, in which water serves as the acceptor. The L-glutamyl isomer of GpNA, with glycylglycine (GlyGly) as an acceptor, was used for the transpeptidation reaction. L-GpNA can serve as both a substrate and a low affinity acceptor, while D-GpNA is unable to serve as an acceptor (18, 21, 26). Therefore, in the absence of an added acceptor GGT exclusively catalyzes a hydrolysis reaction with D-GpNA as the substrate. When L-GpNA is used as a substrate, the GGT reaction is a mixture of both the hydrolysis and transpeptidation reactions. Under these conditions, the rate of the reaction is the sum of hydrolysis and transpeptidation reactions, with the hydrolysis reaction contributing more at low L-GpNA concentrations and transpeptidation dominating at saturating substrate concentrations. […] However, the maximum rate (Vmax) obtained with L-GpNA was approximately 3-times faster than that measured with D-GpNA, and the KGpNA for L-GpNA was 5-times higher than that measured for D-GpNA. This is at least partially due to the ability of L-GpNA to serve as an acceptor, resulting in a transpeptidation reaction, which is faster than the hydrolysis reaction. Therefore, to study the hydrolysis reaction in isolation, D-GpNA was used as the substrate without any added acceptor.

[2] = test system: T2, N[C@H](CCC(=O)Nc1ccc([N+](=O)[O-])cc1)C(=O)O; test: as above; assay type: biochemical, human; details: pH 7.4, 37.0 °C
T2 construct: lacking the transmembrane domain; made in house; host or cells: Pichia pastoris
Protocol: as §1, §2, §3, §4

Chain of Human GGT1 (Homo sapiens) (chain, as listed by the source): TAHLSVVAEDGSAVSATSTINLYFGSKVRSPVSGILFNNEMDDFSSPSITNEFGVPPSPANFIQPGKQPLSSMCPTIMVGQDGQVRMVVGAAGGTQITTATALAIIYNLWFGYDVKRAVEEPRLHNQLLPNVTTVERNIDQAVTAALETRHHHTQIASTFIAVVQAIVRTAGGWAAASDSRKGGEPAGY
Chain of Human GGT1 (Homo sapiens) (chain, as listed by the source): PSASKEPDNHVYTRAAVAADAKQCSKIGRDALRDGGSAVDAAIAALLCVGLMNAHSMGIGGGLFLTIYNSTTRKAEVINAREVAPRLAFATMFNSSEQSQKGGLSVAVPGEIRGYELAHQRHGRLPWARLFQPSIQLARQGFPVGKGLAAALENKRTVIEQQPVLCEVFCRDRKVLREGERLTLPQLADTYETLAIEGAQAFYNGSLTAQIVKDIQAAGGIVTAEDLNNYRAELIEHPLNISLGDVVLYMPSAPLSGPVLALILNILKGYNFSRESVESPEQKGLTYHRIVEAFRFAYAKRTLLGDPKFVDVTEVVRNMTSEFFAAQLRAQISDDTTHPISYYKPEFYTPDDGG

Substance: Human GGT1 (Homo sapiens)
- Km ([1]; other: minus acceptor): 830 ± 60 µM
- Km ([1]; other: plus acceptor GlyGly): 1200 ± 100 µM
- Km ([2]; other: minus acceptor): 160 ± 20 µM
- Km ([2]; other: plus acceptor GlyGly): 4200 ± 100 µM
